The record followed here is patent publication US20110081354A1 (Bristol-Myers Squibb, published 2011).

For assay [1], the target named is T1, chimeric CTLA-4 protein comprising the extracellular and transmembrane domains of human CTLA-4 linked to the … (human; murine, UniProt P16410 36-187; P24161 52-164, limits assumed).
T1 construct: domain: extracellular and transmembrane domains;domain: intracellular domain; also called cell surface CTLA4; hCTLA4+ cells
As to the kind of experiment: flow cytometry on cells expressing chimeric human CTLA-4/CD3zeta; PE anti-human IgG detection. (In general: Flow cytometry measures light scatter and fluorescence of single cells or particles in a stream.)

Assay [2] concerns the target T2, CTLA-4-Ig fusion protein comprising the extracellular domain of human CTLA-4 fused to the Fc region of human … (human, UniProt P16410 36-161).
T2 construct: extracellular domain; also called CTLA-4 Hu Ig; soluble human CTLA-4 fusion protein; not shown: Fc region of human immunoglobulin
T2 sequence (looked up): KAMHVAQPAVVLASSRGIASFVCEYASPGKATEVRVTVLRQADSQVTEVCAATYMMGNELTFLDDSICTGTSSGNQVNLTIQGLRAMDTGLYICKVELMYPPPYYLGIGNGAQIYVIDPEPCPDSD
Briefly: blocking assay, flow cytometry: inhibition of CTLA-4-Ig binding to mouse B7-1 expressing cells.

B1: 3A4 human monoclonal antibody (antibody, V domains shown)
VH: QVQVVESGGGVVQPGRSLRLSCAASGFTFSSYGMHWVRQAPGKGLEWVAVIWYDGSNKYYVDSVKGRFTISRDNSKNTLYLQMNSLRAEDTAVYYCARGPGYSSSFDYWGQGTLVTVSS
VL: DIQMTQSPSSLSASVGDRVTITCRASQGISSWLAWYQQKPEKAPKSLIYAASSLQSGVPSRFSGSGSGTDFTLTISSLQPEDFATYYCQQYNSYPLTFGGGTKVEIK
notes: Purified human IgG kappa antibody from a hybridoma (HuMab mouse); also called mAb 3A4
Take B1: the EC50 (usually the midpoint of the concentration-response curve) in assay [1] was found to be 0.661 nM; in assay [2] it was 7.41 nM.

B2: 6C10 human monoclonal antibody (antibody, V domains shown)
VH: QVQLVESGGGVVQPGRSLRLSCTASGFTFSSHGMHWVRQAPGKGLEWVAVVWFDGSNKYYVDSVKGRFTISRDNSKNTLYLQMNSLRAEDTAVYYCARGSGYSSGFDYWGQGTLVTVSS
VL: DIQMTQSPSSLSASVGDRVTITCRASQGISSWLAWYQQKPEKAPKSLIYAASSLQSGVPSRFSGSGSGTDFTLTISSLQPEDFATYYCQQYNSYPLTFGGGTKVEIK
notes: Purified human IgG kappa antibody from a hybridoma (HuMab mouse); also called mAb 6C10
With B2, the EC50 in assay [1] is 0.247 nM; in assay [2] it was 15.3 nM.
